From patent publication US20150283263A1 (ADC THERAPEUTICS S A, published 2015)

Tests used:
CD25 [1] = molecular target: T1, CD25 (human, UniProt P01589 22-272); assay: flow cytometry on SU-DHL-1 cells (surface CD25), average of four experiments
T1 construct: whole, on cells; Endogenous CD25 on cell lines; also called surface CD25 on Karpas299 and SU-DHL-1 cells
T1 sequence (looked up): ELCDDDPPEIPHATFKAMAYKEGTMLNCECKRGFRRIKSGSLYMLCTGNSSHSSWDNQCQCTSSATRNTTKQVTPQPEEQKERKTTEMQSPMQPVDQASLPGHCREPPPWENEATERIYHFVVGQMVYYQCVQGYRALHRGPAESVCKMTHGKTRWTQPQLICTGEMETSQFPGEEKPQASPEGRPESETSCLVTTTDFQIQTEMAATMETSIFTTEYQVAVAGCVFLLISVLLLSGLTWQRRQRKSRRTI
Description: (§1) Karpas299 and SU-DHL-1 anaplastic large cell lymphoma (ALCL)-derived cell lines have been previously reported to express CD25 (2,3). To confirm their expression profile, CD25 surface expression was analyzed by flow cytometry.
(§2) Surface CD25 expression on Karpas and SU-DHL-1 was determined by flow cytometry. Graphs represent the average of three (Karpas299) or four independent experiments (SU-DHL-1). EC₅₀ values are reported in ng/ml.

CD25 [2] = molecular target: T1, CD25; assay: flow cytometry on Karpas299 cells (surface CD25), average of three experiments
Description: as §1, §2

B1: HuMax-TAC (antibody, IgG1, V domains shown)
VH: QVQLVQSGAEVKKPGSSVKVSCKASGGTFSRYIINWVRQAPGQGLEWMGRIIPILGVENYAQKFQGRVTITADKSTSTAYMELSSLRSEDTAVYYCARKDWFDYWGQGTLVTVSS
VL: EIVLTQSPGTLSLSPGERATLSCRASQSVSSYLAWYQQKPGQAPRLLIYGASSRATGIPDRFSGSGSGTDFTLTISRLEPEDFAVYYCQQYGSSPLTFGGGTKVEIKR
notes: also called AB12; Antibody AB12
EC50 (CD25 [1]): 0.0341 µg/mL | EC50 (CD25 [2]): 0.0202 µg/mL
